Results reported in publication PMC11686114 (Frontiers in Immunology, 2024).
Substitutions are numbered along the chain they refer to. Ends that are not written are not given here.

T1: TRBV5-1 antigenic peptide No. 1 (…) conjugated to BSA (human)
T1 sequence (peptide): TQTPRYLIKTRGQQ

T2: TRBV5-1 antigenic peptide No. 1 (TQTPRYLIKTRGQQ), peptide alone (Homo sapiens)
T2 construct: short form of antigenic peptide No. 1 of the TRBV5-1 segment of the human TCR beta chain; also called Ag1; Peptide N. 1; source: synthetic peptide (Proteogenix)
T2 chain: TQTPRYLIKTRGQQ

T3: TRBV5-1 antigenic peptide No. 1 (TQTPRYLIKTRGQQ), biotinylated (Homo sapiens, also: biotinylated (site not given here))
T3 construct: short form of antigenic peptide No. 1 of the TRBV5-1 segment of the human TCR beta chain; probably held on streptavidin, since its control is PBS-streptavidin (surmise); also called Ag3; peptide-biotin; source: synthetic peptide (Proteogenix)
T3 chain: TQTPRYLIKTRGQQ

B1: scFv clone A2 (scFv, V domains shown)
VH: QVQLQQSGPGLVKPSQTLSLTCAISGDSVSSNSAAWNWIRQSPSRGLEWLGRTYYRSKWYNDYAVSVKSRITINPDTSKNQFSLQLNSVTPEDTAVYYCARDQAAAEVYFDYWGQGTLVTVSS
VL: NFMLTQPHSVSESPGKTVTISCTRSSGSIASNYLQWYQQRPGSAPTTVIYEDNQRPSGVPDRFSGSIDSSSNSASLTISGLKTEDEADYYCQSYDNRNHWVFGGGTQLTVL
notes: tested as phage clone in the confirmatory monoclonal ELISA; source: phage display clone from the human naive scFv library LiAb-SFMAX (Proteogenix), amplified in E. coli TG1
B2: scFv clone A5 (scFv, V domains shown)
VH: B1 VH
VL: B1 VL with L34V, A44S, N96S, R97S, Q107K, L108V
notes: as printed identical to the VH of A2; tested as phage clone in the confirmatory monoclonal ELISA; source: phage display clone from the human naive scFv library LiAb-SFMAX (Proteogenix), amplified in E. coli TG1
B3: scFv clone A8 (scFv, V domains shown)
VH: QVQLVQSGPEMKKAGASVRVSCKGSGYTFSSFDINWVRQVPGQGLEWMGWMNPDTGNTGLAQKFQGRVTMTRDTSIRTAYMELRSLRSDDTAVYYCARDAPRNGRGMDVWGQGTMVTVSS
VL: SYELTQPPSVSVSPGQTARITCSGDALPKQYAYWYQQKPGQAPVLVIYQDTKRPSGIPERFSGSSSGTTVTLTISGVQAEDEADYYCQSADSSGTYPVFGGGTKLTVL
notes: as for B1
B4: scFv clone D5 (scFv, V domains shown)
VH: QVQLVQSGAEVKKPGASVKVSCKPSGYYFNGYDITWVRQAIGQGLEWMGWMNPNSGNRDYAHQFQGRLTMTWDTSLSTAYLELNNLQSDDTAIYYCARERVSSGLDFWGQGTLVTVSS
VL: B3 VL with V46L, Q49K, T51S, K52E, P97V, K104Q
notes: as for B1
B5: scFv clone A12 (scFv, V domains shown)
VH: QVQLQQWGAGLLKPSETLSLTCAVYGGSFSGYYWSWIRQPPGKGLEWIGEINHSGSTNYNPSLKSRVTISVDTSKNQFSLKLSSVTAADTAVYYCARWDLDYWGQGTLVTVSS
VL: EIVLTQSPLSLPVTLGQSASISCRSSQSLVHSDGNTYLNWFQQRPGQSPRRLIYQVSKRDSGVPDRFSGSGSGTDFTLRISRVEAEDVGFYYCMQGTHWPPITFGQGTRLEIK
notes: tested as phage clone in the confirmatory monoclonal ELISA; lead scFv from which the r-hIgG1 mAb was made; also called lead scFv; source: phage display clone from the human naive scFv library LiAb-SFMAX (Proteogenix), amplified in …
B6: scFv clone C10 (scFv, V domains shown)
VH: EVQLVQSGAEVKKPGSSVKVSCKASGGTFSSYAISWVRQAPGQGLEWMGGIIPIFGTANYAQKFQGRVTITADKSTSTAYMELSSLRSEDTAVYYCAREPLRGYSGYDFYYYGMDVWGQGTMVTVSS
VL: SYELTQPHSVSGSPGETVTISCAGSGGSIASNYVQWYQQRPGSAPTTLIYEDKVRPSGVPDRFSGSIDYSSDSASLTISGLKTEDEADYYCQSADSTSTYVFGTGTKVTVL
notes: as for B1

Tests used:
Test in all cases: ELISA; confirmatory monoclonal phage ELISA; antigens peptide alone, peptide-BSA, peptide-biotin; controls PBS, 10% BSA-PBS, PBS-streptavidin; phage dilution factors 1, 3, 9
[1] = target: T1, TRBV5-1 antigenic peptide No. 1 (…) conjugated to BSA (human)
[2] = target: T2, TRBV5-1 antigenic peptide No. 1 …; settings: one partner purified
[3] = target: T3, TRBV5-1 antigenic peptide No. 1 …; settings: one partner purified

| Binder | ELISA signal at phage dilution factor 1 [1] | ELISA signal at phage dilution factor 3 [1] | ELISA signal at phage dilution factor 9 [1] | ELISA signal at phage dilution factor 1 [2] | ELISA signal at phage dilution factor 3 [2] | ELISA signal at phage dilution factor 9 [2] | ELISA signal at phage dilution factor 1 [3] | ELISA signal at phage dilution factor 3 [3] | ELISA signal at phage dilution factor 9 [3] |
| --- | --- | --- | --- | --- | --- | --- | --- | --- | --- |
| B1 | 4.3 | 4.04 | 3.84 | 0.95 | 0.91 | 0.35 | 2.46 | 1.85 | 1.28 |
| B2 | 4.09 | 3.8 | 3.74 | 0.88 | 0.37 | 0.11 | 2.73 | 2.53 | 1.55 |
| B3 | 4.58 | 4.2 | 4.14 | 0.94 | 0.37 | 0.14 | 2.09 | 2.06 | 2 |
| B4 | 4.03 | 3.56 | 3.5 | 0.75 | 0.32 | 0.13 | 2.38 | 1.9 | 1.67 |
| B5 | 2.93 | 1.82 | 0.78 | 0.99 | 0.33 | 0.12 | 2.79 | 1.99 | 1.22 |
| B6 | 3.83 | 3.55 | 3.04 | 1.19 | 0.75 | 0.42 | 2.11 | 1.72 | 1.62 |
